# Data taken from paper PMC4776207.
# Target: ISAV s8ORF2 protein (protein encoded by the largest open reading frame of gene segment 8) (infectious salmon anaemia virus (ISAV), strain Glesvaer/2/90)
# Test: non-reducing SDS-PAGE with western blot
substance,measurement,value
ISAV s8ORF2 protein (protein encoded by the largest open reading frame of gene segment 8) (natural protein),stoichiometry N,2
